Experimental data published in publication PMC11266516.

Target: Fc gamma receptors on mouse peritoneal macrophages (mouse (endogenous in peritoneal macrophages))
Test: flow cytometry on cells; ImageStream X imaging flow cytometry; peritoneal wash cells (2 x 10^6) in 100 uL 1% BSA PBS stained with 0.125 ug mouse IgG-DyLight 405 and anti-CD11b-FITC, 30 min, room temperature; no Fc block

percent of CD11b+ macrophages that bound exogenous IgG: 98.6%
Substance: mouse IgG-DyLight 405 (fluorescently conjugated mouse monomeric IgG) (antibody)
